Changes are numbered by the printed parent chain. In names and notes the source's numbering stands.
B1: GLP-1-Fc-GDF15 fusion protein D8 (Fc fusion)
chain: HGEGTFTSDVSSYLEEQAAKEFIAWLVKGGGGGGGSGGGGSGGGGSAPEAAGGPSVFLFPPKPKDTLMISRTPEVTCVVVDVSQEDPEVQFNWYVDGVEVHNAKTKPREEQFNSTYRVVSVLTVLHQDWLNGKEYKCKVSNKGLPSSIEKTISKAKGQPREPQVYTLPPSQEEMTKNQVSLTCLVKGFYPSDIAVEWESNGQPENNYKTTPPVLDSDGSFFLYSRLTVDKSRWQEGNVFSCSVMHEALHNHYTQESLSLSLGGGGGSGGGGSAPAPAPAPAPAPAPAPAPAPGGGGSGGGGSDHCPLGPGRCCRLHTVRASLEDLGWADWVLSPREVQVTMCIGACPSQFRAANMHAQIKTSLHRLKPDTVPAPCCVPASYNPMVLIQKTDTGVSLQTYDDLLAKDCHCI
B2: GLP-1-Fc-GDF15 fusion protein D9 (Fc fusion)
chain: B1 chain with E255Q
B3: GLP-1-Fc-GDF15 fusion protein D11 (Fc fusion)
chain: HGEGTFTSDVSSYLEEQAAKEFIAWLVKGGGGGGGSGGGGSGGGGSEAAGGPSVFLFPPKPKDTLMISRTPEVTCVVVDVSQEDPEVQFNWYVDGVEVHNAKTKPREEQFNSTYRVVSVLTVLHQDWLNGKEYKCKVSNKGLPSSIEKTISKAKGQPREPQVYTLPPSQEEMTKNQVSLTCLVKGFYPSDIAVEWESNGQPENNYKTTPPVLDSDGSFFLYSRLTVDKSRWQEGNVFSCSVMHEALHNHYTQESLSLSLGGGGGSGGGGSAPAPAPAPAPAPAPAPAPAPGGGGSGGGGSDHCPLGPGRCCRLHTVRASLEDLGWADWVLSPREVQVTMCIGACPSQFRAANMHAQIKTSLHRLKPDTVPAPCCVPASYNPMVLIQKTDTGVSLQTYDDLLAKDCHCI
B4: GLP-1-Fc-GDF15 fusion protein D13 (Fc fusion)
chain: B3 chain with A24Q
B5: GLP-1-Fc-GDF15 fusion protein D14 (Fc fusion)
chain: B3 chain with I23V, A24Q
B6: IgG4 Fc (AA, K439E) (other)
chain: EAAGGPSVFLFPPKPKDTLMISRTPEVTCVVVDVSQEDPEVQFNWYVDGVEVHNAKTKPREEQFNSTYRVVSVLTVLHQDWLNGKEYKCKVSNKGLPSSIEKTISKAKGQPREPQVYTLPPSQEEMTKNQVSLTCLVKGFYPSDIAVEWESNGQPENNYKTTPPVLDSDGSFFLYSRLTVDKSRWQEGNVFSCSVMHEALHNHYTQESLSLSLG
B7: IgG4 Fc (AA, K439D) (other)
chain: B6 chain with E207D
B8: IgG4 Fc (AA, F405Q/Y407E) (other)
chain: B6 chain with F173Q, Y175E, E207K

How the values were obtained:
[1] = molecular target: glucagon-like peptide-1 receptor (UniProt P43220 24-463, limits assumed); assay: cell-based or functional assay
[2] = molecular target: the molecule itself; assay: SEC (size exclusion HPLC), self-association of the Fc into a homodimer
Procedure: (§1) In this example, the effects of introducing different mutations on the structural properties of Fc were tested, and the test results of some mutants are shown in Table 5. Test steps include:
(§2) Molecular cloning method was used to insert Fc nucleic acid sequence into mammalian cell expression vector, and ExpiCHO Fectamine™ CHO Transfection Kit (ThermoFisher Scientific) was used for transient transfection and expression in CHO-S cells; after purification by Protein A column, the target protein was obtained, and the target protein was analyzed by size exclusion high performance liquid chromatography (SEC). The main principle of SEC analysis is based on the molecular weight and three-dimensional structure of the analyte (such as protein). Generally, analytes with larger molecular weights will pass through the chromatographic column more quickly, so they have a shorter column retention time. On the contrary, analytes with smaller molecular weights have longer retention times. So SEC can be used to analyze the aggregation of protein molecules.

[3] = molecular target: the molecule itself; assay: SEC (size exclusion HPLC), self-association of the Fc
Procedure: as §1, §2

Binder | GLP-1 activity (EC50, nM): intracellular cAMP in HEK293 cells with high GLP-1R expression [1] | other results
B1 | 0.084 nM | 
B2 | 0.1 nM | 
B3 | 0.118 nM | 
B4 | 0.124 nM | 
B5 | 0.183 nM | 
B6 |  | binding result [2]: binds
B7 |  | binding result [2]: binds
B8 |  | binding result [3]: no binding

Source: US20250179142A1 (SUNSHINE LAKE PHARMA, published 2025)
